Assay results: FireProtDB (doi:10.1002/pro.2449)

B1: Guanyl-specific ribonuclease Sa, P05798 (parent)
chain: DVSGTVCLSALPPEATDTLNLIASDGPFPYSQDGVVFQNRESVLPTQSYGYYHEYTVITPGARTRGTRRIITGEATQEDYYTGDHYATFSLIDQTC
B2: Guanyl-specific ribonuclease T1, P00651 (parent)
chain: MMYSKLLTLTTLLLPTALALPSLVERACDYTCGSNCYSSSDVSTAQAAGYQLHEDGETVGSNSYPHKYNNYEGFDFSVSSPYYEWPILSSGDVYSGGSPGADRVVFNENNQLAGVITHTGASGNNFVECT

Legend:
[1] = variants of: B1; details: Kitasatospora aureofaciens; pH 7; Thermal; DSC; MOPS; transition: 2; reversible: yes; structure 1RGG; whole UniProt chain shown
[2] = variants of: B2; details: Aspergillus oryzae (strain ATCC 42149 / RIB 40), pH 7, MOPS, transition: 2, reversible: yes, structure 1YGW, whole UniProt chain shown; for denaturant m value / denaturant midpoint (higher = more stable) / unfolding free energy: 25 °C, Urea; for Tm / change of melting temperature, mutant - wild type (higher = more stable) / ddG of mutation (higher = less stable) / unfolding enthalpy (calorimetric): Thermal, DSC

Variant | change of melting temperature, mutant - wild type (higher = more stable) [1] | ddG of mutation (higher = less stable) [1] | unfolding enthalpy (calorimetric) [1] | denaturant m value [2] | denaturant midpoint (higher = more stable) [2] | unfolding free energy [2] | Tm [2] | change of melting temperature, mutant - wild type (higher = more stable) [2] | ddG of mutation (higher = less stable) [2] | unfolding enthalpy (calorimetric) [2]
DVSGTVCLSALPPEATDTLNLIASDGPFPYAQDGVVFQNRESVLPTQSYGYYHEYTVITPGARTRGTRRIITGEATQEDYYTGDHYATFSLIDQTC [S31A] | 1.5 °C | -0.4 kcal/mol | 91 kcal/mol | – | – | – | – | – | – | –
DVSGTVCLSALPPEATDTLNLIAADGPFPYSQDGVVFQNRESVLPTQSYGYYHEYTVITPGARTRGTRRIITGEATQEDYYTGDHYATFSLIDQTC [S24A] | -0.7 °C | 0.2 kcal/mol | 77 kcal/mol | – | – | – | – | – | – | –
DVSGTVCLSALPPEATDTLNLIASDGPFPYSQDGVVFQNRESVLPTQSYGYYHEYTVITPGARTRGTRRIITGEATQEDYYTGDHYATFSLIDQAC [T95A] | -2.1 °C | 0.6 kcal/mol | 97 kcal/mol | – | – | – | – | – | – | –
DVSGTVCLSALPPEATDTLNLIASDGPFPYSQDGVVFQNRESVLPTQSYGYYHEYTVITPGARTRGTRRIITGEATQEDYYTGDHYATFALIDQTC [S90A] | 0.7 °C | -0.2 kcal/mol | 86 kcal/mol | – | – | – | – | – | – | –
DVSGTVCLSALPPEATDTLNLIASDGPFPYSQDGVVFQARESVLPTQSYGYYHEYTVITPGARTRGTRRIITGEATQEDYYTGDHYATFSLIDQTC [N39A] | -7.3 °C | 2 kcal/mol | 66 kcal/mol | – | – | – | – | – | – | –
DVSGTVCLSALPPEATDTLNLIASDGPFPYSQDGVVFQNRESVLPTQAYGYYHEYTVITPGARTRGTRRIITGEATQEDYYTGDHYATFSLIDQTC [S48A] | 1.7 °C | -0.5 kcal/mol | 92 kcal/mol | – | – | – | – | – | – | –
DVSGTVCLSALPPEATDTLALIASDGPFPYSQDGVVFQNRESVLPTQSYGYYHEYTVITPGARTRGTRRIITGEATQEDYYTGDHYATFSLIDQTC [N20A] | -0.1 °C | 0 kcal/mol | 89 kcal/mol | – | – | – | – | – | – | –
DVAGTVCLSALPPEATDTLNLIASDGPFPYSQDGVVFQNRESVLPTQSYGYYHEYTVITPGARTRGTRRIITGEATQEDYYTGDHYATFSLIDQTC [S3A] | -1.1 °C | 0.3 kcal/mol | 86 kcal/mol | – | – | – | – | – | – | –
DVSGTVCLAALPPEATDTLNLIASDGPFPYSQDGVVFQNRESVLPTQSYGYYHEYTVITPGARTRGTRRIITGEATQEDYYTGDHYATFSLIDQTC [S9A] | -4.5 °C | 1.3 kcal/mol | 91 kcal/mol | – | – | – | – | – | – | –
DVSGTVCLSALPPEATDTLNLIASDGPFPYSQDGVVFQNREAVLPTQSYGYYHEYTVITPGARTRGTRRIITGEATQEDYYTGDHYATFSLIDQTC [S42A] | 0.4 °C | -0.1 kcal/mol | 92 kcal/mol | – | – | – | – | – | – | –
MMYSKLLTLTTLLLPTALALPSLVERACDYTCGSNCYSSSDVSTAQAAGYQLHEDGETVGSNSYPHKYNNYEGFDFSVSSPYYEWPILSSGDVYSGGSPGADRVVFNENNQLAGVITHVGASGNNFVECT [T119V] | – | – | – | 1.2 kcal/mol/M | 4.16 M | 5 kcal/mol | 49.3 °C | -3.2 °C | 1 kcal/mol | 97 kcal/mol
MMYSKLLTLTTLLLPTALALPSLVERACDYTCGSNCYSSSDVSTAQAAGYQLHEDGETVGSNSYPHKYNNYEGFDFSVSSPYYEWPILSSGDVYSGGSPGADRVVFNENNQLAGVITHAGASGNNFVECT [T119A] | – | – | – | 0.91 kcal/mol/M | 4.46 M | 4.1 kcal/mol | 50.2 °C | -2.3 °C | 0.7 kcal/mol | 104 kcal/mol
MMYSKLLTLTTLLLPTALALPSLVERACDYTCGSNCYSSSDVSTAQAAGYQLHEDGETVGSNSYPHKYNNYEGFDFSVSSPYYEWPILSSGDVYSGGSPGADRVVFNENNQLAGVIAHTGASGNNFVECT [T117A] | – | – | – | 1.25 kcal/mol/M | 2.32 M | 2.9 kcal/mol | 41.9 °C | -10.6 °C | 3.2 kcal/mol | 98 kcal/mol
MMYSKLLTLTTLLLPTALALPSLVERACDYTCGSNCYSSSDVSTAQAAGYQLHEDGETVGSNSYPHKYNNYEGFDFSVSSPYYEWPILSSGDVYSGGSPGADRVVFNENNQLAGVIVHTGASGNNFVECT [T117V] | – | – | – | 1.24 kcal/mol/M | 2.07 M | 2.6 kcal/mol | 40.7 °C | -11.8 °C | 3.6 kcal/mol | 95 kcal/mol
MMYSKLLTLTTLLLPTALALPSLVERACDYTCGSNCYSSSDVSTAQAAGYQLHEDGETVGSNSYPHKYNNYEGFDFSVSSPYYEWPILSSGDVYSGGSPGADRVVFNENNQLAGVIAHAGASGNNFVECT [T117A T119A] | – | – | – | 1.21 kcal/mol/M | 1.9 M | 2.3 kcal/mol | 40.5 °C | -12 °C | 3.7 kcal/mol | 96 kcal/mol
MMYSKLLTLTTLLLPTALALPSLVERACDYTCGSNCYSSSDVSTAQAAGYQLHEDGETVGSNSYPHKYNNYEGFDFSVSSPYYEWPILSSGDVYSGGSPGADRVVFNENNQLAGVIAHVGASGNNFVECT [T117A T119V] | – | – | – | 1.21 kcal/mol/M | 2.35 M | 2.9 kcal/mol | 41.4 °C | -11 °C | 3.4 kcal/mol | 90 kcal/mol
MMYSKLLTLTTLLLPTALALPSLVERACDYTCGSNCYSSSDVSTAQAAGYQLHEDGETVGSNSYPHKYNNYEGFDFSVSSPYYEWPILSSGDVYSGGSPGADRVVFNENNQLAGVIVHVGASGNNFVECT [T117V T119V] | – | – | – | 1.32 kcal/mol/M | 2.19 M | 2.9 kcal/mol | – | – | – | –
MMYSKLLTLTTLLLPTALALPSLVERACDYTCGSNCYSSSDVSTAQAAGYQLHEDGETVGSNSYPHKYNNYEGFDFSVSSPYYEWPILSSGDVYSGGSPGADRVVFNENNQLAGVIVHAGASGNNFVECT [T117V T119A] | – | – | – | 1.33 kcal/mol/M | 1.9 M | 2.5 kcal/mol | 38.5 °C | -14 °C | 4.3 kcal/mol | 92 kcal/mol
